Reference: the supplement of paper PMC7125110
± gives the standard error. For part of these data: Fewer inactive variants are shown than the library holds.

B1: glmS ribozyme (parent)
chain: AUAAAAGCGCCAGAACUACAGAAAUGUAGUUGACGAGGAGGAGGUUUAUCGAAUUUUCGGCGGAUGCCUCCAAA

Experiments:
Details in all cases: with glucosamine-6-phosphate
glucosamine-6-phosphate [1] = variants of: B1; assay: kcat; higher = faster cleavage; RNA array
Summary of the method: (§1)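 Tiles bearing barcoded ribozyme variants, transcribed in situ by E. coli RNA polymerase on sequenced MiSeq chips, were imaged over ~14 h at 37 °C using a hybridised Cy3 probe. Glucosamine-6-phosphate was supplied at 40 μM to 10 mM in HEPES/KCl/Mg(OAc)2 buffer. kobs came from one- or two-exponential decay fits to normalised per-tile medians, and weighted Michaelis–Menten fits then provided kcat and KM.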

glucosamine-6-phosphate [2] = variants of: B1; assay: KM; higher = weaker cofactor use; RNA array
Summary of the method: as §1

glucosamine-6-phosphate [3] = variants of: B1; assay: self-cleavage kobs at 40 uM GlcN6P; higher = faster cleavage; RNA array
Summary of the method: as §1

glucosamine-6-phosphate [4] = variants of: B1; assay: self-cleavage kobs at 160 uM GlcN6P; higher = faster cleavage; RNA array
Summary of the method: as §1

glucosamine-6-phosphate [5] = variants of: B1; assay: self-cleavage kobs at 640 uM GlcN6P; higher = faster cleavage; RNA array
Summary of the method: as §1

glucosamine-6-phosphate [6] = variants of: B1; assay: self-cleavage kobs at 2500 uM GlcN6P; higher = faster cleavage; RNA array
Summary of the method: as §1

glucosamine-6-phosphate [7] = variants of: B1; assay: self-cleavage kobs at 10000 uM GlcN6P; higher = faster cleavage; RNA array
Summary of the method: as §1

Variant	kcat (glucosamine-6-phosphate [1])	KM (glucosamine-6-phosphate [2])	self-cleavage kobs at 40 uM GlcN6P (glucosamine-6-phosphate [3])	self-cleavage kobs at 160 uM GlcN6P (glucosamine-6-phosphate [4])	self-cleavage kobs at 640 uM GlcN6P (glucosamine-6-phosphate [5])	self-cleavage kobs at 2500 uM GlcN6P (glucosamine-6-phosphate [6])	self-cleavage kobs at 10000 uM GlcN6P (glucosamine-6-phosphate [7])
A14G A39U	0.0511 ± 0.013 s⁻¹	1450 ± 480 µM	0.00167 ± 0.00051 s⁻¹	0.00416 ± 0.0013 s⁻¹	0.0183 ± 0.0062 s⁻¹	0.0365 ± 0.014 s⁻¹	0.0395 ± 0.019 s⁻¹
A14C U30C A53G	1.63e-05 ± 3.1e-06 s⁻¹						
G13U U47A	0.00106 ± 0.00021 s⁻¹	4310 ± 1300 µM	2.95e-05 ± 1.5e-05 s⁻¹	3.53e-05 ± 1.3e-05 s⁻¹	0.000144 ± 1.5e-05 s⁻¹	0.000332 ± 5e-05 s⁻¹	0.000776 ± 8.7e-05 s⁻¹
A14C C67U	0.00159 ± 0.00047 s⁻¹	1720 ± 820 µM	5.24e-05 ± 9e-06 s⁻¹	0.000119 ± 1.7e-05 s⁻¹	0.000511 ± 6e-05 s⁻¹	0.000783 ± 8.1e-05 s⁻¹	0.00184 ± 0.00023 s⁻¹
A14C C67A	0.00149 ± 0.00032 s⁻¹	1850 ± 600 µM	3.89e-05 ± 9.3e-06 s⁻¹	0.000145 ± 2.4e-05 s⁻¹	0.000337 ± 4.4e-05 s⁻¹	0.00079 ± 0.00013 s⁻¹	0.00146 ± 0.00024 s⁻¹
A14C C67G	0.000353 ± 6.7e-05 s⁻¹	2730 ± 860 µM		3.67e-05 ± 7.3e-06 s⁻¹	6.56e-05 ± 5.7e-06 s⁻¹	0.000156 ± 1.5e-05 s⁻¹	0.000293 ± 2.8e-05 s⁻¹
G13U G40C	8.27e-05 ± 6.4e-06 s⁻¹	994 ± 460 µM				4.94e-05 ± 1.9e-05 s⁻¹	7.64e-05 ± 9.8e-06 s⁻¹
G13U G40U	7.77e-05 ± 1.2e-05 s⁻¹				3.55e-05 ± 9.5e-06 s⁻¹	8.94e-05 ± 1.4e-05 s⁻¹	6.79e-05 ± 8.5e-06 s⁻¹
A14C G66A	0.00362 ± 0.0004 s⁻¹	1940 ± 370 µM	7.72e-05 ± 1.3e-05 s⁻¹		0.000879 ± 0.00024 s⁻¹	0.00158 ± 0.00047 s⁻¹	0.00316 ± 0.00037 s⁻¹
G13U C68U	0.000114 ± 6.9e-06 s⁻¹	1630 ± 310 µM			2.76e-05 ± 8.2e-06 s⁻¹	7.37e-05 ± 8.5e-06 s⁻¹	9.63e-05 ± 8.5e-06 s⁻¹
A14U A36U	< 1e-05 s⁻¹			< 1e-05 s⁻¹		< 1e-05 s⁻¹	< 1e-05 s⁻¹
G13U C71U	0.00114 ± 0.00015 s⁻¹	2020 ± 470 µM	2.24e-05 ± 7.7e-06 s⁻¹	0.000105 ± 1.7e-05 s⁻¹	0.000229 ± 3.7e-05 s⁻¹	0.000673 ± 8.2e-05 s⁻¹	0.000946 ± 9.8e-05 s⁻¹
A14C A48G	< 1e-05 s⁻¹	1040 ± 200 µM			< 1e-05 s⁻¹		
A14C U31G G40C	0.00179 ± 0.00038 s⁻¹	1560 ± 520 µM	5.2e-05 ± 1.1e-05 s⁻¹		0.000477 ± 9.7e-05 s⁻¹	0.00097 ± 0.00023 s⁻¹	0.00184 ± 0.00041 s⁻¹
A15C A64C	1.33e-05 ± 4.6e-06 s⁻¹						
